Source: patent US10925971B2, “Methods of treating PRLR positive breast cancer” (Regeneron Pharmaceuticals, Inc., priority 2016, dated 2021)

Experiments:
PRLR expressing cells = experiment: In vitro cell viability (cell kill) assay, several cell backgrounds; assay type: cell-based, human; conditions: PC3/hPRLR and MCF7/hPRLR cell lines
Description: (§1) PRLR-overexpressing cells, including HEK293, PC3, MCF7 and NCI-N87, were generated to assess the ability of anti-PRLR conjugated antibodies to reduce cell viability. For comparative purposes, PC3 and T47D cells with overexpressed ErbB2 were also generated, as well as an MCF7 cell line over-expressing both hPRLR and hErbB2. Briefly, Lipofectamine® 2000-mediated transfection methodology was utilized to generate HEK293 cells expressing human PRLR (HEK293/hPRLR) or human ErbB2 (HEK293/hErbB2). Lipofectamine LTX with Plus Reagent was used to generate PC3 cells expressing human PRLR (PC3/hPRLR) or human ErbB2 (PC3/hErbB2). Lentiviral-mediated transduction was utilized to generate MCF7 cells expressing human PRLR (MCF7/hPRLR), NCI-N87 cells expressing human PRLR (NCI-N87/hPRLR), T47D cells over-expressing human ErbB2 (T47D/hErbB2), and MCF7 cells expressing both human PRLR and human ErbB2 (MCF7/hPRLR/hErbB2). All lines were selected for at least two weeks in complete growth media plus appropriate selection reagents. Stably expressing populations were enriched for PRLR expression via FACS using the anti PRLR antibody Control I.
(§2) Next, the ability of anti-PRLR-DM1 antibody-drug conjugates (i.e., anti-PRLR antibodies conjugated to DM1 via a non-cleavable linker [SMCC]) to reduce cell viability was determined using in vitro cell based assays. Cells were seeded in PDL-coated 96 well plates at 1500 to 10000 cells per well in complete growth media and allowed to grow overnight. For cell viability curves, ADCs or free DM1 (as the methyl disulfide derivative DM1-SMe) were added to the cells at final concentrations ranging from 500 nM to 5 pM and incubated for 3 days. The 293, PC3 and T47D cells were incubated with CCK8 (Dojindo, Rockville, Md.) for the final 1-3 hours and the absorbance at 450 nm (OD450) was determined on a Flexstation3 (Molecular Devices, Sunnyvale, Calif.). MCF7 cells were treated with Hoechst 33342 nuclear stain while being fixed with 4% formaldehyde. Images were acquired on the ImageXpress micro XL (Molecular Devices, Sunnyvale, Calif.) and nuclear counts were determined via Columbus image analysis software (Perkin Elmer, Shelton, Conn.). Background OD450 values (PC3, 293, and T47D) or nuclear counts (MCF7) from digitonin (40 nM) treated cells was subtracted from all wells and viability was expressed as a percentage of the untreated controls. IC50 values were determined from a four-parameter logistic equation over a 10-point response curve (GraphPad Prism).

HEK293 (293) cells = experiment: In vitro cell viability (cell kill) assay, CCK8; assay type: cell-based, human; conditions: 293
In short: (§3)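 Cells stably overexpressing human PRLR (transfected or lentiviral, FACS-enriched) were treated for 3 days with anti-PRLR-SMCC-DM1 ADCs or free DM1-SMe at 500 nM to 5 pM. HEK293 and PC3 viability was read by CCK8 OD450; MCF7 by Hoechst nuclear counts. Digitonin background subtracted; % of untreated; IC50 from 10-point four-parameter fit.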

[1] = tested on: HEK293/hPRLR (293/hPRLR) cells; experiment: In vitro cell viability (cell kill) assay, CCK8; assay type: cell-based, human
In short: as §3

PC3 cells = experiment: In vitro cell viability (cell kill) assay, CCK8; assay type: cell-based, human; conditions: Table 11, 3 days
In short: as §3

MCF7 (MCF7/ATCC) cells = experiment: In vitro cell viability (cell kill) assay, nuclear counts; assay type: cell-based, human; conditions: MCF7; Table 16
Description: as §1, §2

T47D cells = experiment: In vitro cell viability (cell kill) assay, CCK8; assay type: cell-based, human
In short: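 T47D cells grown overnight, then exposed for 3 days to anti-PRLR-DM1 ADCs (SMCC non-cleavable linker) or DM1-SMe at 500 nM to 5 pM.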

NCI-N87/hPRLR cells = experiment: In vitro cell viability (cell kill) assay; assay type: cell-based, human; conditions: NCI-N87/PRLR; Table 17
Description: PRLR-overexpressing cells, including HEK293, PC3, MCF7 and NCI-N87, were generated to assess the ability of anti-PRLR conjugated antibodies to reduce cell viability. For comparative purposes, PC3 and T47D cells with overexpressed ErbB2 were also generated, as well as an MCF7 cell line over-expressing both hPRLR and hErbB2. Briefly, Lipofectamine® 2000-mediated transfection methodology was utilized to generate HEK293 cells expressing human PRLR (HEK293/hPRLR) or human ErbB2 (HEK293/hErbB2). Lipofectamine LTX with Plus Reagent was used to generate PC3 cells expressing human PRLR (PC3/hPRLR) or human ErbB2 (PC3/hErbB2). […]
Next, the ability of anti-PRLR-DM1 antibody-drug conjugates (i.e., anti-PRLR antibodies conjugated to DM1 via a non-cleavable linker [SMCC]) to reduce cell viability was determined using in vitro cell based assays. […] The 293, PC3 and T47D cells were incubated with CCK8 (Dojindo, Rockville, Md.) for the final 1-3 hours and the absorbance at 450 nm (OD450) was determined on a Flexstation3 (Molecular Devices, Sunnyvale, Calif.). […] Images were acquired on the ImageXpress micro XL (Molecular Devices, Sunnyvale, Calif.) and nuclear counts were determined via Columbus image analysis software (Perkin Elmer, Shelton, Conn.). […] IC50 values were determined from a four-parameter logistic equation over a 10-point response curve (GraphPad Prism).

HEK293/hErbB2 cells = experiment: In vitro cell viability (cell kill) assay; assay type: cell-based, human; conditions: 293/ErbB2; Table 14
Description: as §1, §2
(§4) The potency of anti-PRLR conjugated antibodies compared with a similarly conjugated antibody to the co-expressed ErbB2 cell surface target was also assessed.

MCF7/hPRLR/hErbB2 cells = experiment: In vitro cell viability (cell kill) assay; assay type: cell-based, human; conditions: MCF/PRLR + ErbB2; Table 17
Description: as §1, §2, §4

PC3/hErbB2 cells = experiment: In vitro cell viability (cell kill) assay; assay type: cell-based, human; conditions: PC3/ErbB2; Table 15
Description: as §1, §2, §4

MCF7/PRLR tumors = experiment: MCF7/PRLR breast cancer xenograft, tumor size and tumor growth inhibition; assay type: in vivo, NCr nude mice; conditions: for Average Tumor Growth Inhibition (%) / Final Tumor size mm^3 (mean ± SEM): MCF7/PRLR tumors TRIAL #1, NCr Nude mice, Day 52
In short: (§5)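 MCF7/PRLR cells in mammary fat pad of female NCr nude mice, PC3/PRLR in flank of male SCID, T47D #11 in flank of female CB17 SCID, all with estrogen pellets.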

PC3/PRLR tumors = experiment: PC3/PRLR xenograft, tumor size and tumor growth inhibition; assay type: in vivo, SCID mice; conditions: for Average Tumor Growth Inhibition (%) / Final Tumor size mm^3 (mean ± SEM): PC3/PRLR tumors TRIAL #1, SCID mice, Day 63
In short: as §5

SK-BR-3 cells = experiment: In vitro cell viability (cell kill) assay; assay type: cell-based, human; conditions: Table 16

B1: H1H6953N-DM1 (conjugate)
VH: EVQLLESGGGLVQPGGTLRLSCAASGFTFSAYAMSWVRQAPGKGLEWVSSINVRAGDTYYADSVKGRFTISRDNSKNTLFLLMNSLRAEDTAAYYCAKARYSSNWGFDFWGQGTLVTVSS
VL: DIVMTQSPDSLTVSLGARTTINCQSSQTILHSSNNHNYLAWYQQKPGLPPKLLIYWSSTRESGVPDRFSGSGSGTDFTLTISSLQAEDVAIYYCQQYSNTPYTFGQGTKLEIN
- cell killing, non-cleavable DM1 ADCs versus cleavable MMAE ADCs (PRLR expressing cells): nearly equivalent cell killing
- % Kill (HEK293 (293) cells; Table 11, 3 days): 88%
- % Kill (HEK293 (293) cells; Table 14): 92%
- % Kill ([1]; 293/PRLR, Table 14): 93%
- percent killing ([1]; 293/hPRLR cells): 93%
- % Kill (PC3 cells): 78%
- IC50 (PC3 cells): 110 nM
- % Kill (MCF7 (MCF7/ATCC) cells): 74%
- percent killing (T47D cells; T47D cells): 78%
- % Kill (T47D cells; T47D, Table 16): 78%
- % Kill (NCI-N87/hPRLR cells): 94%
- % Kill (HEK293/hErbB2 cells): 98%
- IC50 (HEK293/hErbB2 cells): 120 nM
- % Kill (MCF7/hPRLR/hErbB2 cells): 77%
- % Kill (PC3/hErbB2 cells): 73%
- Average Tumor Growth Inhibition (%) (MCF7/PRLR tumors; multi-dose 5 mg/kg): 120%
- Final Tumor size mm^3 (mean ± SEM) (MCF7/PRLR tumors; multi-dose 5 mg/kg): 107 ± 45 mm^3
- Average Tumor Growth Inhibition (%) (MCF7/PRLR tumors; multi-dose 15 mg/kg): 133%
- Final Tumor size mm^3 (mean ± SEM) (MCF7/PRLR tumors; multi-dose 15 mg/kg): 0 ± 0 mm^3
- MCF7/PRLR tumor growth (MCF7/PRLR tumors; first multi-dose trial, 5 and 15 mg/kg): potently inhibited MCF7/PRLR tumor growth
- Average Tumor Growth Inhibition (%) (PC3/PRLR tumors; multi-dose 5 mg/kg): 23%
- Final Tumor size mm^3 (mean ± SEM) (PC3/PRLR tumors; multi-dose 5 mg/kg): 1058 ± 138 mm^3
- Average Tumor Growth Inhibition (%) (PC3/PRLR tumors; multi-dose 15 mg/kg): 39%
- Final Tumor size mm^3 (mean ± SEM) (PC3/PRLR tumors; multi-dose 15 mg/kg): 892 ± 53 mm^3
- PC3/PRLR tumor growth (PC3/PRLR tumors; multi-dose, especially at 15 mg/kg): demonstrated inhibition of tumor growth
- % Kill (SK-BR-3 cells): 77%
